This is an account of results in article PMC10269695, “HtpG Is a Metal-Dependent Chaperone Which Assists the DnaK/DnaJ/GrpE Chaperone System of Mycobacterium tuberculosis via Direct Association with DnaJ2” (Microbiology Spectrum, 2023).

This assay addresses T1, M. tuberculosis HtpG (high-temperature protein G) (M. tuberculosis H37Rv, UniProt P9WMJ7 1-647).
T1 construct: also called mHtpG; Rv2299c; not shown: GST, N-terminal, cleaved
T1 sequence: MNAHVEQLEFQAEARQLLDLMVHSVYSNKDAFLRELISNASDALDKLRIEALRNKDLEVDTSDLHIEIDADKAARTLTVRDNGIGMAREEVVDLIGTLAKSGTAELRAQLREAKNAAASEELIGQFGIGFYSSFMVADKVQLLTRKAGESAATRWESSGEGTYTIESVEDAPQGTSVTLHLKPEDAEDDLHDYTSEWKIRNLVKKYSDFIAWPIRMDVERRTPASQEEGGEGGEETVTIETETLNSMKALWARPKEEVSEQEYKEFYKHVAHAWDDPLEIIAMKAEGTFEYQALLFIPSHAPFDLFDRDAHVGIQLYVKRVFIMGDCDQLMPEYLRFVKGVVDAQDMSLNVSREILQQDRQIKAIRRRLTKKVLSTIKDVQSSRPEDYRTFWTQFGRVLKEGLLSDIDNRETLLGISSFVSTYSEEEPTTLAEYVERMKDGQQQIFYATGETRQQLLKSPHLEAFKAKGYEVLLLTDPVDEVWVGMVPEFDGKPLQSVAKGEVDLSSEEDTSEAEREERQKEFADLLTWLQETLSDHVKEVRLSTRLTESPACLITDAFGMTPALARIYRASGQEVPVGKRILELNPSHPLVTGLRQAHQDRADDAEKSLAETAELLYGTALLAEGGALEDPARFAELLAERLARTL
The experiment in a line: BLI. The settings on record: both partners purified.

B1: M. tuberculosis DnaJ2 (natural protein)
chain: MARDYYGLLGVSKNASDADIKRAYRKLARELHPDVNPDEAAQAKFKEISVAYEVLSDPDKRRIVDLGGDPLESAAAGGNGFGGFGGLGDVFEAFFGGGFGGGAASRGPIGRVRPGSDSLLRMRLDLEECATGVTKQVTVDTAVLCDRCQGKGTNGDSVPIPCDTCGGRGEVQTVQRSLLGQMLTSRPCPTCRGVGVVIPDPCQQCMGDGRIRARREISVKIPAGVGDGMRVRLAAQGEVGPGGGPAGDLYVEVHEQAHDVFVREGDHLHCTVSVPMVDAALGVTVTVDAILDGLSEITIPPGTQPGSVITLRGRGMPHLRSNTRGDLHVHVEVVVPTRLDHQDIELLRELKGRRDREVAEVRSTHAAAGGLFSRLRETFTGR
notes: also called Rv2373c; not shown: GST, N-terminal, cleaved
B1: the Kd is ~0.2 µM.
